Results published in patent publication US20260242478A1 (published 2026).

What was measured:
[1] = biological target: Anti-CD28 Fab (SEQ ID NOs: 696, 697); experiment: phage binding ELISA on captured anti-CD28 Fab, wells pre-incubated with CD28 antigen as competitor
Target sequence in this assay (VH, as listed by the source, chain 1 of 2): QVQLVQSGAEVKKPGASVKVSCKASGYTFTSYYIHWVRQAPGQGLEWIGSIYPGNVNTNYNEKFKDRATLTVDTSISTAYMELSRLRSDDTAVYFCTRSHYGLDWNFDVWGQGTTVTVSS
Target sequence in this assay (VL, as listed by the source, chain 2 of 2): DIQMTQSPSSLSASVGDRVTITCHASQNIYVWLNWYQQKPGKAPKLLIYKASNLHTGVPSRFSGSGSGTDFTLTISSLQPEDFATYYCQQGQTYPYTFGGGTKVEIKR
Protocol: (§1) Clonal phage were harvested as crude supematants and screened via standard ELISAs. […] Prior to the addition of clonal phage, wells were incubated with blocking buffer and CD28 antigen or blocking buffer alone. Without washing or aspirating, clonal phage supematants were then added to the wells and incubated for a short time. Wells were then washed followed by detection of bound phage using a horse radish conjugated anti-M13 antibody. Clonal phage of interest were then sent for sequence analysis.

[2] = biological target: Anti-CD28 Fab (SEQ ID NOs: 696, 697); experiment: phage binding ELISA; biotinylated anti-CD28 Fab on neutravidin plate, clonal phage, anti-M13 HRP detection
Target sequence in this assay (VH, as listed by the source, chain 1 of 2): as the sequence (VH, as listed by the source, chain 1 of 2) above
Target sequence in this assay (VL, as listed by the source, chain 2 of 2): as the sequence (VL, as listed by the source, chain 2 of 2) above
Protocol: as §1

[3] = biological target: T1, Anti-CD28 Fab (SEQ ID NOs: 696, 697); experiment: phage ELISA on captured anti-CD28 Fab; wells pre-incubated with CD28 antigen as competitor;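 note: clonal phage from crude supernatants added to wells pretreated with blocking buffer with or without CD28, bound phage read by ELISA with HRP-conjugated anti-M13 antibody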
T1 construct: In the phage ELISA the Fab was biotinylated and captured on neutravidin coated plates
T1 sequence (VH, as listed by the source, chain 1 of 2): as the sequence (VH, as listed by the source, chain 1 of 2) above
T1 sequence (VL, as listed by the source, chain 2 of 2): as the sequence (VL, as listed by the source, chain 2 of 2) above
Protocol: as §1

[4] = biological target: T1, Anti-CD28 Fab (SEQ ID NOs: 696, 697); experiment: phage ELISA; biotinylated anti-CD28 Fab on neutravidin plate, bound phage detected with anti-M13-HRP
Protocol: (§2) Clonal phage were harvested as crude supematants and screened via standard ELISAs. […] Prior to the addition of clonal phage, wells were incubated with blocking buffer and CD28 antigen or blocking buffer alone. Without washing or aspirating, clonal phage supematants were then added to the wells and incubated for a short time. Wells were then washed followed by detection of bound phage using a horse radish conjugated anti-M13 antibody.

[5] = biological target: T2, Anti-CD28 Fab (SEQ ID NOs: 696, 697); experiment: phage ELISA on captured anti-CD28 Fab; wells pre-incubated with CD28 antigen as competitor; remark: listed apart in the source;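 note: clonal phage from crude supernatants added to wells pretreated with blocking buffer with or without CD28, bound phage read by ELISA with HRP-conjugated anti-M13 antibody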
T2 construct: In the phage ELISA the Fab was biotinylated and captured on neutravidin coated plates
T2 sequence (VH, as listed by the source, chain 1 of 2): as the sequence (VH, as listed by the source, chain 1 of 2) above
T2 sequence (VL, as listed by the source, chain 2 of 2): as the sequence (VL, as listed by the source, chain 2 of 2) above
Protocol: as §1

[6] = biological target: T2, Anti-CD28 Fab (SEQ ID NOs: 696, 697); experiment: phage ELISA; biotinylated anti-CD28 Fab captured on neutravidin plate, clonal phage detected with HRP anti-M13 antibody
Protocol: as §2

[7] = biological target: T3, Anti-CD28 Fab (SEQ ID NOs: 696, 697); experiment: phage binding ELISA on captured Fab; wells pre-incubated with CD28 antigen as competitor
T3 construct: In the phage ELISA the Fab was biotinylated and captured on neutravidin coated plates
T3 sequence (VH, as listed by the source, chain 1 of 2): as the sequence (VH, as listed by the source, chain 1 of 2) above
T3 sequence (VL, as listed by the source, chain 2 of 2): as the sequence (VL, as listed by the source, chain 2 of 2) above
Protocol: as §2

[8] = biological target: T3, Anti-CD28 Fab (SEQ ID NOs: 696, 697); experiment: phage binding ELISA; biotinylated Fab on neutravidin plate, clonal phage supernatant, anti-M13 HRP detection
Protocol: as §1

SCAAGAHWSWPVCF (Tested as clonal phage supernatant) [Phage-1639 (peptide-92 library clone, SEQ ID NO: 1935)]
Anti-CD28 Fab signal in the presence of CD28 (phage binding ELISA) [1]: 0.08
Anti-CD28 Fab signal (phage binding ELISA) [2]: 1.2

TCAAGAAYTWPVCF [Phage-1609]
Phage binding ELISA, Anti-CD28 Fab signal in the presence of CD28 [3]: 0.08
Phage binding ELISA, Anti-CD28 Fab signal [4]: 1.32

TCTAGFSYKWPTCL [Phage-1621]
Phage binding ELISA, Anti-CD28 Fab signal in the presence of CD28 [5]: 0.09
Phage binding ELISA, Anti-CD28 Fab signal [6]: 1.28

RCAAVFSYTWPPCL [Phage-1618]
Phage binding ELISA, Anti-CD28 Fab signal in the presence of CD28 [3]: 0.07
Phage binding ELISA, Anti-CD28 Fab signal [4]: 1.29

SCADGAIWEWPWCF [Phage-1611]
Phage binding ELISA, Anti-CD28 Fab signal in the presence of CD28 [3]: 0.07
Phage binding ELISA, Anti-CD28 Fab signal [4]: 1.32

LCAAGAAWEWPMCF [Phage-1614]
Phage binding ELISA, Anti-CD28 Fab signal in the presence of CD28 [3]: 0.06
Phage binding ELISA, Anti-CD28 Fab signal [4]: 1.3

TCAAGATWLWPWCL [Phage-1629]
Phage binding ELISA, Anti-CD28 Fab signal in the presence of CD28 [5]: 0.07
Phage binding ELISA, Anti-CD28 Fab signal [6]: 1.23

SCSAGATYQWPYCF [Phage-1623]
Phage binding ELISA, Anti-CD28 Fab signal in the presence of CD28 [5]: 0.06
Phage binding ELISA, Anti-CD28 Fab signal [6]: 1.26

LCAAGATYPWPDCV (Tested as clonal phage supernatant) [Phage-1635 (peptide-92 library clone, SEQ ID NO: 1931)]
Anti-CD28 Fab signal in the presence of CD28 (phage binding ELISA) [1]: 0.05
Anti-CD28 Fab signal (phage binding ELISA) [2]: 1.21

SCAAGAMWEWPKCF [Phage-1610]
Phage binding ELISA, Anti-CD28 Fab signal in the presence of CD28 [3]: 0.09
Phage binding ELISA, Anti-CD28 Fab signal [4]: 1.32

TCADGAFWQWPVCL [Phage-1631]
Phage binding ELISA, Anti-CD28 Fab signal in the presence of CD28 [5]: 0.07
Phage binding ELISA, Anti-CD28 Fab signal [6]: 1.22

NCSAGATWPWPMCF [Phage-1622]
Phage binding ELISA, Anti-CD28 Fab signal in the presence of CD28 [5]: 0.06
Phage binding ELISA, Anti-CD28 Fab signal [6]: 1.27

SCAAGATWKWPECL [Phage-1628]
Phage binding ELISA, Anti-CD28 Fab signal in the presence of CD28 [5]: 0.07
Phage binding ELISA, Anti-CD28 Fab signal [6]: 1.24

TCSAGATYSWPYCL (Tested as clonal phage supernatant) [Phage-1633 (peptide-92 library clone, SEQ ID NO: 1929)]
Anti-CD28 Fab signal in the presence of CD28 (phage binding ELISA) [1]: 0.07
Anti-CD28 Fab signal (phage binding ELISA) [2]: 1.22

TCAAGANYSWPACL (Tested as clonal phage supernatant) [Phage-1646 (peptide-92 library clone, SEQ ID NO: 1942)]
Anti-CD28 Fab signal in the presence of CD28 (phage binding ELISA) [1]: 0.08
Anti-CD28 Fab signal (phage binding ELISA) [2]: 1.14

NCAAGAMYSWPTCL [Phage-1625]
Phage binding ELISA, Anti-CD28 Fab signal in the presence of CD28 [5]: 0.07
Phage binding ELISA, Anti-CD28 Fab signal [6]: 1.25

SCAEVFNYVWPFCF [Phage-1608]
Phage binding ELISA, Anti-CD28 Fab signal in the presence of CD28 [3]: 0.07
Phage binding ELISA, Anti-CD28 Fab signal [4]: 1.32

RCAAGAMWTWPACF [Phage-1626]
Phage binding ELISA, Anti-CD28 Fab signal in the presence of CD28 [5]: 0.06
Phage binding ELISA, Anti-CD28 Fab signal [6]: 1.25

TCAAGAVWTWPICF [Phage-1630]
Phage binding ELISA, Anti-CD28 Fab signal in the presence of CD28 [5]: 0.05
Phage binding ELISA, Anti-CD28 Fab signal [6]: 1.23

QCSAGATYAWPFCL [Phage-1615]
Phage binding ELISA, Anti-CD28 Fab signal in the presence of CD28 [3]: 0.08
Phage binding ELISA, Anti-CD28 Fab signal [4]: 1.29

SCAAGATYSWPACL [Phage-1624]
Phage binding ELISA, Anti-CD28 Fab signal in the presence of CD28 [5]: 0.07
Phage binding ELISA, Anti-CD28 Fab signal [6]: 1.25

LCSAGAMYPWPVCL (Tested as clonal phage supernatant) [Phage-1640 (peptide-92 library clone, SEQ ID NO: 1936)]
Anti-CD28 Fab signal in the presence of CD28 (phage binding ELISA) [1]: 0.08
Anti-CD28 Fab signal (phage binding ELISA) [2]: 1.19

TCSAGATYKWPACF [Phage-1619]
Phage binding ELISA, Anti-CD28 Fab signal in the presence of CD28 [5]: 0.05
Phage binding ELISA, Anti-CD28 Fab signal [6]: 1.29

SCADGFNYVWPLCF (Tested as clonal phage supernatant) [Phage-1645 (peptide-92 library clone, SEQ ID NO: 1941)]
Anti-CD28 Fab signal in the presence of CD28 (phage binding ELISA) [1]: 0.08
Anti-CD28 Fab signal (phage binding ELISA) [2]: 1.14

TCAAGVPYKWPPCL [Phage-1616]
Phage binding ELISA, Anti-CD28 Fab signal in the presence of CD28 [3]: 0.06
Phage binding ELISA, Anti-CD28 Fab signal [4]: 1.29

QCAAGATYPWPVCL [Phage-1647]
Anti-CD28 Fab signal in the presence of CD28 [7]: 0.09
Anti-CD28 Fab (SEQ ID NOs: 696, 697) signal [8]: 1.13

TCAAGATYEWPSCL [Phage-1612]
Phage binding ELISA, Anti-CD28 Fab signal in the presence of CD28 [3]: 0.09
Phage binding ELISA, Anti-CD28 Fab signal [4]: 1.32

LCAAGAYYPWPLCF [Phage-1620]
Phage binding ELISA, Anti-CD28 Fab signal in the presence of CD28 [5]: 0.06
Phage binding ELISA, Anti-CD28 Fab signal [6]: 1.28

PCSDGVAYPWPYCV (Tested as clonal phage supernatant) [Phage-1638 (peptide-92 library clone, SEQ ID NO: 1934)]
Anti-CD28 Fab signal in the presence of CD28 (phage binding ELISA) [1]: 0.06
Anti-CD28 Fab signal (phage binding ELISA) [2]: 1.2

SCSAGAMYTWPTCL [Phage-1613]
Phage binding ELISA, Anti-CD28 Fab signal in the presence of CD28 [3]: 0.08
Phage binding ELISA, Anti-CD28 Fab signal [4]: 1.31

SCSAVFSYRWPKCL (Tested as clonal phage supernatant) [Phage-1642 (peptide-92 library clone, SEQ ID NO: 1938)]
Anti-CD28 Fab signal in the presence of CD28 (phage binding ELISA) [1]: 0.06
Anti-CD28 Fab signal (phage binding ELISA) [2]: 1.18

LCEEFFHYSWPLCL (Tested as clonal phage supernatant) [Phage-1637 (peptide-92 library clone, SEQ ID NO: 1933)]
Anti-CD28 Fab signal in the presence of CD28 (phage binding ELISA) [1]: 0.06
Anti-CD28 Fab signal (phage binding ELISA) [2]: 1.21

SCAAGATYTWPFCL [Phage-1617]
Phage binding ELISA, Anti-CD28 Fab signal in the presence of CD28 [3]: 0.07
Phage binding ELISA, Anti-CD28 Fab signal [4]: 1.29

TCSAGASWGWPWCL [Phage-1632]
Phage binding ELISA, Anti-CD28 Fab signal in the presence of CD28 [5]: 0.07
Phage binding ELISA, Anti-CD28 Fab signal [6]: 1.22

SCSAGATWAWPQCF (Tested as clonal phage supernatant) [Phage-1641 (peptide-92 library clone, SEQ ID NO: 1937)]
Anti-CD28 Fab signal in the presence of CD28 (phage binding ELISA) [1]: 0.08
Anti-CD28 Fab signal (phage binding ELISA) [2]: 1.19

TCAAGANWPWPECL (Tested as clonal phage supernatant) [Phage-1636 (peptide-92 library clone, SEQ ID NO: 1932)]
Anti-CD28 Fab signal in the presence of CD28 (phage binding ELISA) [1]: 0.08
Anti-CD28 Fab signal (phage binding ELISA) [2]: 1.21

TCSAGATYSWPSCF (Tested as clonal phage supernatant) [Phage-1634 (peptide-92 library clone, SEQ ID NO: 1930)]
Anti-CD28 Fab signal in the presence of CD28 (phage binding ELISA) [1]: 0.09
Anti-CD28 Fab signal (phage binding ELISA) [2]: 1.21

SCSAGAGWAWPMCF (Tested as clonal phage supernatant) [Phage-1643 (peptide-92 library clone, SEQ ID NO: 1939)]
Anti-CD28 Fab signal in the presence of CD28 (phage binding ELISA) [1]: 0.08
Anti-CD28 Fab signal (phage binding ELISA) [2]: 1.16

SCAAGFDYGWPMCL (Tested as clonal phage supernatant) [Phage-1644 (peptide-92 library clone, SEQ ID NO: 1940)]
Anti-CD28 Fab signal in the presence of CD28 (phage binding ELISA) [1]: 0.06
Anti-CD28 Fab signal (phage binding ELISA) [2]: 1.16

TCAAGATYMWPVCL [Phage-1627]
Phage binding ELISA, Anti-CD28 Fab signal in the presence of CD28 [5]: 0.07
Phage binding ELISA, Anti-CD28 Fab signal [6]: 1.24
